Reference: US20260297187 (published 2026)
Residue numbers refer to the chain shown, from its start. Names may count otherwise. Like-named read-outs stand apart in the source and are kept apart here. One block for each binder: values may come before it.

What was measured:
[1] = target: T1, CEACAM1-his (human); assay: BLI
T1 chain: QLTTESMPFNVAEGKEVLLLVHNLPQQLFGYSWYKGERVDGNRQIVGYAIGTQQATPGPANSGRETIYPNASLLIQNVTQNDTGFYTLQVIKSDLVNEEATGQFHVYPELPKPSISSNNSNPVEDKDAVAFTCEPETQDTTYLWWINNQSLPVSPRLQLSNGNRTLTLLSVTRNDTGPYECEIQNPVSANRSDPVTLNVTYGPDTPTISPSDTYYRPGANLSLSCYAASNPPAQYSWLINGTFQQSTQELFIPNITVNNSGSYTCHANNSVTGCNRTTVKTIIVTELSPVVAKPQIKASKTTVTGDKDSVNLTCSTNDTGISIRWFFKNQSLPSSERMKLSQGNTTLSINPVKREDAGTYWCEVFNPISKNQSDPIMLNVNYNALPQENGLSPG

[2] = target: T1, CEACAM1-his; assay: BLI

- Kd [1]: 5.86 nM
B1: h4D10.G4.H4(N56Q Y100V)L2 (antibody, V domains shown)
VH: QVQLVQSGAEVKKPGASVKVSCKASGYTFSSYVIHWVRQAPGQGLEWMGYFNPYNQGTNYNENFKGRVTMTADTSTSTVYMELSSLRSEDTAVYYCARYVYASGSLYFDYWGQGTTVTVSS
VL: DIQMTQSPSTLSASVGDRVTITCSASSSVSYMHWYQQKPGKAPKPLIYEISKLASGVPSRFSGSGSGTEFTLTISSLQPDDAATYYCQQWNYPLITFGGGTKVEIK

- Kd [1]: 2.75 nM
B2: h4D10.G4.H4(N56V Y100F)L2 (antibody, V domains shown)
VH: B1 VH with Q56V, V100F
VL: B1 VL

- Kd [1]: 5.41 nM
B3: h4D10.G4.H4(N56I Y100W)L2 (antibody, V domains shown)
VH: B1 VH with Q56I, V100W
VL: B1 VL

- Kd [2]: 1.77 nM
B4: h4D10.G4.H3L2 (antibody, V domains shown)
VH: B1 VH with Q56N, T76I, V79A, S85R, E89D, V100Y, T116L
VL: B1 VL

- Kd [1]: 6.22 nM
B5: h4D10.G4.H4(N56I Y100V)L2 (antibody, V domains shown)
VH: B1 VH with Q56I
VL: B1 VL

- Kd [1]: 4.87 nM
B6: h4D10.G4.H4(N56V Y100W)L2 (antibody, V domains shown)
VH: B1 VH with Q56V, V100W
VL: B1 VL

- Kd [1]: 3.65 nM
B7: h4D10.G4.H4(N56Q Y100W)L2 (antibody, V domains shown)
VH: B1 VH with V100W
VL: B1 VL

- Kd [1]: 4.97 nM
B8: h4D10.G4.H4(N56W Y100V)L2 (antibody, V domains shown)
VH: B1 VH with Q56W
VL: B1 VL

- Kd [2]: 1.46 nM
B9: h4D10.G4.H3L1 (antibody, V domains shown)
VH: B1 VH with Q56N, T76I, V79A, S85R, E89D, V100Y, T116L
VL: B1 VL with M4L, T10F, D80E

- Kd [1]: 1.13 nM
B10: h4D10.G4.H4(N56W Y100F)L2 (antibody, V domains shown)
VH: B1 VH with Q56W, V100F
VL: B1 VL

- Kd [2]: 2.16 nM
B11: h4D10.G4.H0bL1 (antibody, V domains shown)
VH: B1 VH with Q56N, A72R, V100Y
VL: B1 VL with M4L, T10F, D80E

- Kd [1]: 3.14 nM
B12: h4D10.G4.H4(N56I Y100F)L2 (antibody, V domains shown)
VH: B1 VH with Q56I, V100F
VL: B1 VL

- Kd [1]: 3.39 nM
B13: h4D10.G4.H4(N56W Y100W)L2 (antibody, V domains shown)
VH: B1 VH with Q56W, V100W
VL: B1 VL

- Kd [2]: 1.53 nM
B14: h4D10.G4.H4L1 (antibody, V domains shown)
VH: B1 VH with Q56N, V100Y
VL: B1 VL with M4L, T10F, D80E

- Kd [1]: 4.67 nM
B15: h4D10.G4.H4(N56V Y100V)L2 (antibody, V domains shown)
VH: B1 VH with Q56V
VL: B1 VL

- Kd [2]: 2.28 nM
B16: h4D10.G4.H0bL2 (antibody, V domains shown)
VH: B1 VH with Q56N, A72R, V100Y
VL: B1 VL

- Kd [2]: 2.15 nM
B17: h2C10.G4.H0aL0a (antibody, V domains shown)
VH: QVQLVQSGAEVKKPGASVKVSCKASGFAFTNYLIEWVRQAPGQGLEWMGVLNPGSGATNYNEKFKGRVTMTRDTSISTAYMELSRLRSDDTAVYYCARGIYGGYFAMDYWGQGTLVTVSS
VL: DIQMTQSPSSLSASVGDRVTITCRASQDITTYLNWYQQKPGKAPKLLIYYTSRLHSGVPSRFSGSGSGTDFTFTISSLQPEDIATYYCQQGNTLPRTFGQGTKVEIK

- Kd [2]: 2 nM
B18: h2C10.G4.H3L4 (antibody, V domains shown)
VH: B17 VH with R72A
VL: B17 VL with K42G, F73L, Q100G, V104L

- Kd [2]: 1.81 nM
B19: h2C10.G4.H0aL1 (antibody, V domains shown)
VH: B17 VH
VL: B17 VL with F73L

- Kd [2]: 2.18 nM
B20: h2C10.G4.H3L1 (antibody, V domains shown)
VH: B17 VH with R72A
VL: B17 VL with F73L

- Kd [2]: 2.23 nM
B21: h2C10.G4.H0aL0b (antibody, V domains shown)
VH: B17 VH
VL: B17 VL with F73L, I83F

- Kd [2]: 1.13 nM
B22: h2C10.G4.H3L3 (antibody, V domains shown)
VH: B17 VH with R72A
VL: B17 VL with K42G, F71Y, F73L, Q100G, V104L

- Kd [2]: 0.927 nM
B23: h2C10.G4.H3L2 (antibody, V domains shown)
VH: B17 VH with R72A
VL: B17 VL with P8T, K42G, F71Y, F73L, Q100G, V104L

- Kd [2]: 0.944 nM
B24: h2C10.G4.H0aL3 (antibody, V domains shown)
VH: B17 VH
VL: B17 VL with K42G, F71Y, F73L, Q100G, V104L
